Data on 24 sequences can be found in the Immune Epitope Database (IEDB).

Among the targets are HLA-A*02:06; HLA-A*02:02; HLA-A*68:02; HLA-A*02:03; HLA-A*02:01.
What all share (assay): IEDB peptide-MHC binding, purified MHC/competitive/radioactivity; ≥ and ≤ were set here for values at or beyond the usual limits of such assays
Where [1] appears, read: source organism: Vaccinia virus WR.
Setting [2] is: source organism: Hepacivirus hominis.
Setting [3] is: source organism: Influenza A virus.

On to SLCSCICTV, for which the 50% inhibitory concentration (IC50) with HLA-A*02:06 (source organism: SARS-CoV1) came out at 0.0058 µM; with HLA-A*02:02 (source organism: SARS-CoV1), 0.004 µM; with HLA-A*68:02 (source organism: SARS-CoV1), 1.67 µM; in the experiment with HLA-A*02:03 (source organism: SARS-CoV1) it was 0.0042 µM; with HLA-A*02:01 (source organism: SARS-CoV1), 0.0032 µM.
In the case of SLEATFIDV, the IC50 with HLA-A*02:06 (setting [1]) came out at 0.01 µM; in the experiment with HLA-A*02:02 (setting [1]), 0.035 µM; with HLA-A*68:02 (setting [1]) it was 0.023 µM; with HLA-A*02:03 (setting [1]), 0.08 µM; with HLA-A*02:01 (setting [1]), 0.182 µM.
As to SLMAFTASI, the IC50 turned out to be 0.743 µM in the experiment with HLA-A*02:06 (setting [2]); 0.019 µM with HLA-A*02:02 (setting [2]); 0.284 µM with HLA-A*68:02 (setting [2]); 0.04 µM in the experiment with HLA-A*02:03 (setting [2]); 0.106 µM with HLA-A*02:01 (setting [2]).
With SLPSYAAYA, the IC50 in the experiment with HLA-A*02:06 (source organism: SARS-CoV1) was found to be 0.0087 µM; with HLA-A*02:02 (source organism: SARS-CoV1), 0.0067 µM; with HLA-A*68:02 (source organism: SARS-CoV1), 0.334 µM; in the experiment with HLA-A*02:03 (source organism: SARS-CoV1), 0.0026 µM; with HLA-A*02:01 (source organism: SARS-CoV1), 0.0039 µM.
SLSNLDFRL: the IC50 with HLA-A*02:06 (setting [1]) was 1.38 µM; in the experiment with HLA-A*02:02 (setting [1]), 1.31 µM; in the experiment with HLA-A*68:02 (setting [1]), 0.023 µM; with HLA-A*02:03 (setting [1]) it was 1.76 µM; with HLA-A*02:01 (setting [1]), 2.88 µM.
On to SLTTIGTIA, for which the IC50 in the experiment with HLA-A*02:06 (setting [1]) is 0.489 µM; in the experiment with HLA-A*02:02 (setting [1]) it was 0.001 µM; with HLA-A*68:02 (setting [1]), 0.323 µM; in the experiment with HLA-A*02:03 (setting [1]) it was 0.0037 µM; with HLA-A*02:01 (setting [1]), 0.133 µM.
Consider SLVITYCLV, for which the IC50 turned out to be 0.27 µM in the experiment with HLA-A*02:06 (setting [1]); 1.69 µM with HLA-A*02:02 (setting [1]); 1.4 µM with HLA-A*68:02 (setting [1]); 0.201 µM in the experiment with HLA-A*02:03 (setting [1]); 0.174 µM with HLA-A*02:01 (setting [1]).
As to SLVITYCLVT, the IC50 was 0.824 µM with HLA-A*02:06 (setting [1]); 0.286 µM in the experiment with HLA-A*02:02 (setting [1]); 0.447 µM in the experiment with HLA-A*68:02 (setting [1]); 0.566 µM with HLA-A*02:03 (setting [1]); 0.373 µM with HLA-A*02:01 (setting [1]).
For the sequence SLVKPTVYV, the IC50 with HLA-A*02:06 (source organism: SARS-CoV1) is 0.473 µM; with HLA-A*02:02 (source organism: SARS-CoV1), 0.108 µM; with HLA-A*68:02 (source organism: SARS-CoV1), 0.145 µM; in the experiment with HLA-A*02:03 (source organism: SARS-CoV1), 0.037 µM; in the experiment with HLA-A*02:01 (source organism: SARS-CoV1), 0.106 µM.
For SLVSKHWEL, the IC50 in the experiment with HLA-A*02:06 (setting [1]) was 0.035 µM; with HLA-A*02:02 (setting [1]), 0.0012 µM; with HLA-A*68:02 (setting [1]), 0.378 µM; with HLA-A*02:03 (setting [1]), 0.036 µM; with HLA-A*02:01 (setting [1]) it was 0.0027 µM.
Turning to SMGNTLTCYV, the IC50 in the experiment with HLA-A*02:06 (setting [2]) was determined as 0.205 µM; with HLA-A*02:02 (setting [2]), 0.044 µM; with HLA-A*68:02 (setting [2]) it was 2.43 µM; with HLA-A*02:03 (setting [2]) it was 0.039 µM; with HLA-A*02:01 (setting [2]), 0.1 µM.
For SMMSFSAAL, in that order: 0.106 µM, 0.0051 µM, 0.493 µM, 0.015 µM and 0.013 µM.
With SMSQELAELL, the IC50 with HLA-A*02:06 (setting [1]) was determined as 0.474 µM; in the experiment with HLA-A*02:02 (setting [1]) it was 0.0062 µM; with HLA-A*68:02 (setting [1]), 1.3 µM; with HLA-A*02:03 (setting [1]), 0.055 µM; with HLA-A*02:01 (setting [1]), 0.032 µM.
On to SMYGKAFNHA, for which the IC50 came out at 0.004 µM with HLA-A*02:06 (setting [1]); 0.0066 µM with HLA-A*02:02 (setting [1]); 0.163 µM with HLA-A*68:02 (setting [1]); 0.00093 µM with HLA-A*02:03 (setting [1]); 0.0097 µM with HLA-A*02:01 (setting [1]).
Regarding SMYVIPDELI, the IC50 in the experiment with HLA-A*02:06 (setting [1]) came to 0.492 µM; with HLA-A*02:02 (setting [1]) it was 0.031 µM; with HLA-A*68:02 (setting [1]) it was 1.74 µM; in the experiment with HLA-A*02:03 (setting [1]), 0.114 µM; with HLA-A*02:01 (setting [1]) it was 0.38 µM.
In the case of SQFSYKELYV, the concentration for half-maximal inhibition (IC50) in the experiment with HLA-A*02:06 (setting [1]) was 0.071 µM; with HLA-A*02:02 (setting [1]), 0.014 µM; with HLA-A*68:02 (setting [1]) it was 0.634 µM; with HLA-A*02:03 (setting [1]), 0.027 µM; in the experiment with HLA-A*02:01 (setting [1]), 0.121 µM.
On to SSLENFRAYV, for which the IC50 with HLA-A*02:06 (setting [3]) amounted to 0.044 µM; in the experiment with HLA-A*02:02 (setting [3]), 0.204 µM; with HLA-A*68:02 (setting [3]) it was 0.024 µM; in the experiment with HLA-A*02:03 (setting [3]) it was 1.14 µM; with HLA-A*02:01 (setting [3]) it was 0.172 µM.
As to STDQDTMLFA, the IC50 worked out at 2.02 µM with HLA-A*02:06 (setting [1]); 0.646 µM in the experiment with HLA-A*02:02 (setting [1]); 1.55 µM in the experiment with HLA-A*68:02 (setting [1]); 4.7 µM with HLA-A*02:03 (setting [1]); 3.52 µM with HLA-A*02:01 (setting [1]).
Taken in the same sequence, the figures for STISWMMKL were 0.012 µM, 0.092 µM, 0.00023 µM, 0.023 µM and 0.055 µM.
Taken in the same sequence, the figures for STSPTRTWKV were 0.504 µM, 0.397 µM, 0.131 µM, 0.717 µM and 0.741 µM.
Taken in the same sequence, the figures for STTENAAYQV were 0.101 µM, 0.928 µM, 0.015 µM, 4.7 µM and 1.18 µM.
For STYPGNTFV, the IC50 was 0.00046 µM with HLA-A*02:06 (setting [1]); 0.011 µM with HLA-A*02:02 (setting [1]); 0.00024 µM with HLA-A*68:02 (setting [1]); 0.00019 µM in the experiment with HLA-A*02:03 (setting [1]); 0.064 µM with HLA-A*02:01 (setting [1]).
Take SVDVDIYDAV: the IC50 is 0.0033 µM in the experiment with HLA-A*02:06 (setting [1]); 0.00043 µM with HLA-A*02:02 (setting [1]); 0.00025 µM with HLA-A*68:02 (setting [1]); 0.0092 µM with HLA-A*02:03 (setting [1]); 0.153 µM in the experiment with HLA-A*02:01 (setting [1]).
SVIFYFISI: the IC50 with HLA-A*02:06 (setting [1]) worked out at 0.00017 µM; in the experiment with HLA-A*02:02 (setting [1]), 0.155 µM; with HLA-A*68:02 (setting [1]) it was 0.0017 µM; in the experiment with HLA-A*02:03 (setting [1]), 0.075 µM; with HLA-A*02:01 (setting [1]), 0.079 µM.
